Reference: US20140087995A1 (published 2014)
Substitutions are numbered along the chain they refer to. Numbered stars: 1 amine (or outer) side, 2 acyl side, 3 side chain; on linkers, the order of the positions; unused ones are H or OH. Bridge positions count the residues as written; N and C are the ends. Side chains are listed from the residue outwards. Ends that are not written are not given here. * marks the point of attachment. C20 diacid = O=C(O)CCCCCCCCCCCCCCCCCCC(=O)*; γGlu = O=C(O)[C@H](CCC(=O)[*:2])N[*:1]; AEEA = NCCOCCOCC(=O)O

B1: N^ε1-[2-[2-[2-[[(4S)-4-carboxy-4-(19-carboxynonadecanoylamino)butanoyl]amino]ethoxy]ethoxy]acetyl]-[Arg17,Pro21,Pro27,Arg35]-h-amylin (peptide)
peptide: K([AEEA-γGlu-C20 diacid])CNTATCATQRLANFLRHSSPNFGAIPSSTNVGSRTY-NH2
modifications: disulfide 2-7 (inferred)
notes: analogue of human amylin; also called compound 38
B2: N^ε1-[(4S)-4-carboxy-4-[[(4S)-4-carboxy-4-(19-carboxynonadecanoylamino)butanoyl]amino]butanoyl]-[Asp14,Arg17,Pro21,Pro27,Arg35]-h-amylin (peptide)
peptide: K([γGlu-γGlu-C20 diacid])CNTATCATQRLADFLRHSSPNFGAIPSSTNVGSRTY-NH2
modifications: disulfide 2-7 (inferred)
notes: analogue of human amylin; also called compound 52
B3: N^α1-[2-[2-[2-[[2-[2-[2-[[(4S)-4-carboxy-4-(19-carboxynonadecanoylamino)butanoyl]amino]ethoxy]ethoxy]acetyl]amino]ethoxy]ethoxy]acetyl]-[Arg17,Pro21,Pro27]-h-am … (peptide)
peptide: KCNTATCATQRLANFLRHSSPNFGAIPSSTNVGSNTY
modifications: alpha-amino group of N-terminal Lys1 acylated with C20 diacid via gGlu-2xOEG linker; disulfide Cys2-Cys7; C-terminal amide
notes: h-amylin derivative; disulfide bridge and C-terminal amide as told for human amylin; also called compound 24
B4: N^α1-[(4S)-4-carboxy-4-(19-carboxynonadecanoylamino)butanoyl]-[Arg17,Pro21,Pro27,Lys35]-h-amylin (peptide)
peptide: B3 peptide with N35K
modifications: alpha-amino group of N-terminal Lys1 acylated with C20 diacid via gGlu linker; disulfide Cys2-Cys7; C-terminal amide
notes: h-amylin derivative; disulfide bridge and C-terminal amide as told for human amylin; also called compound 34
B5: N^α1-[(4S)-4-carboxy-4-(19-carboxynonadecanoylamino)butanoyl]-[Arg17,Pro21,Pro27,Glu35]-h-amylin (peptide)
peptide: B3 peptide with N35E
modifications: alpha-amino group of N-terminal Lys1 acylated with C20 diacid via gGlu linker; disulfide Cys2-Cys7; C-terminal amide
notes: h-amylin derivative; disulfide bridge and C-terminal amide as told for human amylin; also called compound 23
B6: N^α1-[2-[2-[2-[[2-[2-[2-[[(4S)-4-carboxy-4-(19-carboxynonadecanoylamino)butanoyl]amino]ethoxy]ethoxy]acetyl]amino]ethoxy]ethoxy]acetyl]-[Glu14,Arg17,Pro21,Pro27 … (peptide)
peptide: B3 peptide with N14E
modifications: alpha-amino group of N-terminal Lys1 acylated with C20 diacid via gGlu-2xOEG linker; disulfide Cys2-Cys7; C-terminal amide
notes: h-amylin derivative; disulfide bridge and C-terminal amide as told for human amylin; also called compound 19
B7: N^α1-[(4S)-4-carboxy-4-(19-carboxynonadecanoylamino)butanoyl]-[Arg17,Pro21,Pro27,Pro31,Glu35]-h-amylin (peptide)
peptide: {C20 diacid-γGlu}-KCNTATCATQRLANFLRHSSPNFGAIPSSTPVGSETY-NH2
modifications: disulfide 2-7
SMILES: CC[C@H](C)[C@H](NC(=O)[C@H](C)NC(=O)CNC(=O)[C@H](Cc1ccccc1)NC(=O)[C@H](CC(N)=O)NC(=O)[C@@H]1CCCN1C(=O)[C@H](CO)NC(=O)[C@H](CO)NC(=O)[C@H](Cc1c[nH]cn1)NC(=O)[C@H](CCCNC(=N)N)NC(=O)[C@H](CC(C)C)NC(=O)[C@H](Cc1ccccc1)NC(=O)[C@H](CC(N)=O)NC(=O)[C@H](C)NC(=O)[C@H](CC(C)C)NC(=O)[C@H](CCCNC(=N)N)NC(=O)[C@H](CCC(N)=O)NC(=O)[C@@H](NC(=O)[C@H](C)NC(=O)[C@@H]1CSSC[C@H](NC(=O)[C@H](CCCCN)NC(=O)CC[C@H](NC(=O)CCCCCCCCCCCCCCCCCCC(=O)O)C(=O)O)C(=O)N[C@@H](CC(N)=O)C(=O)N[C@@H]([C@@H](C)O)C(=O)N[C@@H](C)C(=O)N[C@@H]([C@@H](C)O)C(=O)N1)[C@@H](C)O)C(=O)N1CCC[C@H]1C(=O)N[C@@H](CO)C(=O)N[C@@H](CO)C(=O)N[C@H](C(=O)N1CCC[C@H]1C(=O)N[C@H](C(=O)NCC(=O)N[C@@H](CO)C(=O)N[C@@H](CCC(=O)O)C(=O)N[C@H](C(=O)N[C@@H](Cc1ccc(O)cc1)C(N)=O)[C@@H](C)O)C(C)C)[C@@H](C)O
notes: h-amylin derivative; disulfide bridge and C-terminal amide as told for human amylin; also called compound 28
B8: N^α1-[(4S)-4-carboxy-4-(19-carboxynonadecanoylamino)butanoyl]-[Arg17,Pro21,Pro27,His34]-h-amylin (peptide)
peptide: B3 peptide with S34H
modifications: alpha-amino group of N-terminal Lys1 acylated with C20 diacid via gGlu linker; disulfide Cys2-Cys7; C-terminal amide
notes: h-amylin derivative; disulfide bridge and C-terminal amide as told for human amylin; also called compound 40
B9: N^α1-[(4S)-4-carboxy-4-(19-carboxynonadecanoylamino)butanoyl]-[Arg17,Pro21,Pro27,Arg34]-h-amylin (peptide)
peptide: B3 peptide with S34R
modifications: alpha-amino group of N-terminal Lys1 acylated with C20 diacid via gGlu linker; disulfide Cys2-Cys7; C-terminal amide
notes: h-amylin derivative; disulfide bridge and C-terminal amide as told for human amylin; also called compound 39

biological target: T1, rat amylin receptor (rat calcitonin receptor + rat RAMP 3) (rat, UniProt P32214 25-516; Q9JJ73 23-147); test: SPA competition with 125I-rat amylin, membranes of BHK cells with rat calcitonin receptor + rat RAMP3 (Assay VI)
T1 construct: whole, on cells; membranes of transiently transfected BHK tk'ts 13 cells (Assay VI); also called rAmylin-R; rat amylin 3(a) receptor
T1 sequence (looked up) 1: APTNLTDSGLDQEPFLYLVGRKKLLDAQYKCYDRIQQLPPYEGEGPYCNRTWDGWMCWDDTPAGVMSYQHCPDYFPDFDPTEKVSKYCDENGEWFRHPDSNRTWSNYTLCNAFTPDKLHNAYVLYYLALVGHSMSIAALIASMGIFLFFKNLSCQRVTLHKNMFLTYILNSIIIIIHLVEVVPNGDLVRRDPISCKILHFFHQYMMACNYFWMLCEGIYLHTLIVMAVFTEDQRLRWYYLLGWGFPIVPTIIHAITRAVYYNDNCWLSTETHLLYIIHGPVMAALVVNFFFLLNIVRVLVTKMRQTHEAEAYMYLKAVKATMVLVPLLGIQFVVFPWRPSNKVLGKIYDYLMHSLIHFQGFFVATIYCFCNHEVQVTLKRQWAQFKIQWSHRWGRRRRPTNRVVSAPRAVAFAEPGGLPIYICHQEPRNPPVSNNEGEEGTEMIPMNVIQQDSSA
T1 sequence (looked up) 2: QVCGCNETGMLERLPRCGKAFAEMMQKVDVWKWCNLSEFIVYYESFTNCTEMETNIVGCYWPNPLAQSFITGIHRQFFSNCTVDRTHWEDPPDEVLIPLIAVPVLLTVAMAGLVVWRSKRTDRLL

| Binder | IC50 |
| --- | --- |
| B1 | 0.383 nM |
| B2 | 0.335 nM |

biological target: T2, rat calcitonin receptor (rat, UniProt P32214 25-516); test: SPA competition with 125I-calcitonin, membranes of BHK cells with rat calcitonin receptor (Assay VIII)
T2 construct: whole, on cells; membranes of transiently transfected BHK tk'ts 13 cells (Assay VIII); also called rCTR; rat calcitonin (a) receptor
T2 sequence (looked up): T1 sequence (looked up) 1

| Binder | IC50 |
| --- | --- |
| B1 | 38 nM |
| B2 | 159 nM |

biological target: T3, human calcitonin receptor (human, UniProt P30988 25-474); test: cell-based or functional assay
T3 sequence (looked up): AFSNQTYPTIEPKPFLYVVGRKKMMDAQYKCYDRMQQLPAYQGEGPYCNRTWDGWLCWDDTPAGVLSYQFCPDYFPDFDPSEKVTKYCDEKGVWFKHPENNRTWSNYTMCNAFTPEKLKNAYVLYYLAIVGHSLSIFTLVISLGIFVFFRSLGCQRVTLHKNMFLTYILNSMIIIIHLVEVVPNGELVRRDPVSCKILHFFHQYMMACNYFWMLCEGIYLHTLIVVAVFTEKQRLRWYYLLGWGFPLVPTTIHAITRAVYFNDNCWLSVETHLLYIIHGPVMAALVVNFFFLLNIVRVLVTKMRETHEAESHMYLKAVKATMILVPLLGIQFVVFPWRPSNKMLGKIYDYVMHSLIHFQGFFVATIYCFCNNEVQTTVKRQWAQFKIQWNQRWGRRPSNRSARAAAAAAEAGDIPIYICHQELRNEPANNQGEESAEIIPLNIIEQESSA

| Binder | hCTR funct. EC50 |
| --- | --- |
| B3 | 10000 pM |
| B4 | 2620 pM |
| B5 | 3020 pM |
| B6 | 5320 pM |
| B7 | 2030 pM |
| B8 | 2680 pM |
| B9 | 2520 pM |
